Data taken from patent US20260167718A1 (Merck Sharp & Dohme, published 2026).
Where two headings read alike, the source gives them in different places.

B1: Mouse anti-ILT3 mAb 52B8 IgG2a/Kappa (antibody)
heavy: EVQLVESGGDLVKPGGSLKLSCAASGFTFSNYGMSWVRQTPDRRLEWVATISGGGDYTNYPDSMRGRFTISRDNAKNTLYLQMSSLKSEDTAMYYCGRRLWFRSLYYAMDYWGQGTSVTVSSAKTTAPSVYPLAPVCGDTTGSSVTLGCLVKGYFPEPVTLTWNSGSLSSGVHTFPAVLQSDLYTLSSSVTVTSSTWPSQSITCNVAHPASSTKVDKKIEPRGPTIKPCPPCKCPAPNLLGGPSVFIFPPKIKDVLMISLSPIVTCVVVDVSEDDPDVQISWFVNNVEVHTAQTQTHREDYNSTLRVVSALPIQHQDWMSGKEFKCKVNNKDLPAPIERTISKPKGSVRAPQVYVLPPPEEEMTKKQVTLTCMVTDFMPEDIYVEWTNNGKTELNYKNTEPVLDSDGSYFMYSKLRVEKKNWVERNSYSCSVVHEGLHNHHTTKSFSRTPGK
light: NIVLTQSPASLAVSLGQRATISCRASEKVDSFGNSFMHWYQQKPGQPPKLLIYLTSNLDSGVPARFSGSGSRTDFALTIDPVEADDAATYYCQQNNEDPYTFGGGTKLEIKRADAAPTVSIFPPSSEQLTSGGASVVCFLNNFYPKDINVKWKIDGSERQNGVLNSWTDQDSKDSTYSMSSTLTLTKDEYERHNSYTCEATHKTSTSPIVKSFNRNEC
notes: also called p52B8; LB181.52B8.1B1
B2: Chimeric anti-ILT3 52B8 mouse VH/human IgG4 (S228P):mouse VL/human Kappa (antibody)
heavy: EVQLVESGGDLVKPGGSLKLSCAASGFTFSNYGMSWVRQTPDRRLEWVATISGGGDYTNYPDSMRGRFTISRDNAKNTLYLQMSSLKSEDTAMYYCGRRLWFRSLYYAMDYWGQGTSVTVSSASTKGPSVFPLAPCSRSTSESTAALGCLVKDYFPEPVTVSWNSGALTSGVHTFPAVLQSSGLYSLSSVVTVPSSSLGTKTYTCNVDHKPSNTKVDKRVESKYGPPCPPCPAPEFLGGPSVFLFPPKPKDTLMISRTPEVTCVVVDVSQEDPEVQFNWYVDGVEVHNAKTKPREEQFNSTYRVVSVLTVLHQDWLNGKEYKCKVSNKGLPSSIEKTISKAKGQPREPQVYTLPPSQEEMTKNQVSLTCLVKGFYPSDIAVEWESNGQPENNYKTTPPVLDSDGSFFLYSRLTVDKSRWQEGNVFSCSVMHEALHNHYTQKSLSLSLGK
light: NIVLTQSPASLAVSLGQRATISCRASEKVDSFGNSFMHWYQQKPGQPPKLLIYLTSNLDSGVPARFSGSGSRTDFALTIDPVEADDAATYYCQQNNEDPYTFGGGTKLEIKRTVAAPSVFIFPPSDEQLKSGTASVVCLLNNFYPREAKVQWKVDNALQSGNSQESVTEQDSKDSTYSLSSTLTLSKADYEKHKVYACEVTHQGLSSPVTKSFNRGEC
notes: also called mAb 73; c52B8
B3: Rat anti-ILT3 mAb 40A6 IgG2a/Kappa (antibody, V domains shown)
VH: QVQLKESGPGLVQASETLSLTCTVSGFSLTSYSINWVRQSSGKGPEWMGRFWYDEGIAYNLTLESRLSISGDTSKNQVFLKMNSLRTGDTGTYYCTRDRDTVGITGWFAYWGQGTLVTVSS
VL: ETVMTQSPTSLSASIGERVTLNCKASQSVGVNVDWYQQTPGQSPKLLIYGSANRHTGVPDRFTGSGFGSDFTLTISDVEPEDLGVYYCLQYGSVPYTFGAGTKLELK
notes: Rat IgG2a/Kappa; also called p40A6; LB184.40A6.1C1
B4: humanized anti-ILT3 monoclonal antibody 9B11 (antibody, V domains shown)
VH: EVQLVESGGGLVKPGGSLRLSCAASGFAFSSYDMSWVRQAPGKGLEWVSTISSSGSYTYYPDSVKGRFTISRDNAKNSLYLQMNSLRAEDTAVYYCARLWGAMDYWGQGTLVTVSS
VL: DIQMTQSPSSLSASVGDRVTITCRASQGLTNDLHWYQQKPGKAPKRLIYYASQSISGVPSRFSGSGSGTEFTLTISSLQPEDFATYYCQQSNSWPFTFGQGTKLEIK

How the values were obtained:
[1] = target: T1, human ILT5 expressed on CHO-K1 cells (human, UniProt O75022 24-631); test: cell-based ELISA on CHO-K1 cells expressing human ILT5, HRP anti-mouse IgG, OD 450-650 nm
T1 construct: whole, on cells; also called CHO-ILT5
Method: (§1) Mouse anti-human ILT3 antibodies were tested for binding to human ILT3, and cross-reactivity to Rhesus monkey ILT3, human ILT5, human ILT7, human ILT8, and human ILT11 expressing CHO-K1 cells using a cell-based ELISA format. CHO-K1 cells were plated in 96-well tissue-culture plates in 50 μL of DMEM/F12, 10% BCS and gentamycin (CHO-K1 media). Cells were plated at either 2×10⁴ cells/well two days prior to the assay or 4×10⁴ cells/well one day prior to the assay. Media was removed from the wells prior to adding the test samples. Purified antibody was serially-diluted in CHO-K1 media and added to the CHO-K1 plates. The samples were incubated at room temperature for 30-60 minutes and plates were washed three times with PBS/05% Tween-20 using the cell wash program on the Biotek EL405x Select CW plate washer. Binding was detected using an HRP-conjugated goat anti-mouse IgG (Southern Biotech cat #1031-05) secondary antibody added at a 1:2000 dilution in CHO-K1 media and incubated at room temperature for 30-60 minutes. Assay plates were washed as above and developed with TMB and stopped with TMB stop solution (KPL cat #50-85-06). […] Mouse IgG1 (MIgG1) served as a control.

[2] = target: T2, Human ILT3 (LILRB4) extracellular domain with C-terminal His Tag (human, UniProt Q8NHJ6 22-259); test: SPR (Biacore), human ILT3-His
T2 construct: the claims count residues 1-238 as the extracellular domain; also called human ILT3-His; ILT3_H

[3] = target: T3, Rhesus monkey ILT3 expressed on CHO-K1 cells (rhesus monkey (Macaca mulatta)); test: cELISA, CHO rhesus ILT3 cells
T3 construct: whole, on cells; also called rhILT3; CHO-rhesus ILT3

[4] = target: T4, rhesus ILT3-His tagged recombinant protein (rhesus monkey (Macaca mulatta)); test: SPR (Biacore), rhesus ILT3-His
T4 construct: also called ILT3_MM; not shown: His tag
T4 chain: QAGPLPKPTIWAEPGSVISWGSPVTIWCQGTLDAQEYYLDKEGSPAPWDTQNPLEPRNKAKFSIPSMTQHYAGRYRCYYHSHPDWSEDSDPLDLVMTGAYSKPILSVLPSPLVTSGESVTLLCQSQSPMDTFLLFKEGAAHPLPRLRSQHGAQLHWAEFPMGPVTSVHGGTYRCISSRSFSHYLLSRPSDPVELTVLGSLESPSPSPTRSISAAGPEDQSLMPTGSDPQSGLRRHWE

[5] = target: T5, human ILT3 expressed on cells (human, UniProt Q8NHJ6 22-448); test: cELISA, CHO human ILT3 cells
T5 construct: whole, on cells; also called huILT3; LILRB4
Method: (§2) Mouse anti-human ILT3 antibodies were tested for binding to human ILT3, and cross-reactivity to Rhesus monkey ILT3, human ILT5, human ILT7, human ILT8, and human ILT11 expressing CHO-K1 cells using a cell-based ELISA format. CHO-K1 cells were plated in 96-well tissue-culture plates in 50 μL of DMEM/F12, 10% BCS and gentamycin (CHO-K1 media). Cells were plated at either 2×10⁴ cells/well two days prior to the assay or 4×10⁴ cells/well one day prior to the assay. Media was removed from the wells prior to adding the test samples. Purified antibody was serially-diluted in CHO-K1 media and added to the CHO-K1 plates. The samples were incubated at room temperature for 30-60 minutes and plates were washed three times with PBS/05% Tween-20 using the cell wash program on the Biotek EL405x Select CW plate washer. Binding was detected using an HRP-conjugated goat anti-mouse IgG (Southern Biotech cat #1031-05) secondary antibody added at a 1:2000 dilution in CHO-K1 media and incubated at room temperature for 30-60 minutes. Assay plates were washed as above and developed with TMB and stopped with TMB stop solution (KPL cat #50-85-06). The absorbance at 450 nm—620 nm was determined. Mouse IgG1 (MIgG1) served as a control.

[6] = target: T5, human ILT3 expressed on cells; test: cELISA, CHO human ILT3 cells; remark: listed apart in the source
[7] = target: T2, Human ILT3 (LILRB4) extracellular …; test: SPR (Biacore), human ILT3-His; remark: listed apart in the source
[8] = target: T6, human ILT7 expressed on CHO-K1 cells (human, UniProt P59901 24-499); test: cell-based ELISA on CHO-K1 cells expressing human ILT7, HRP anti-mouse IgG, OD 450-650 nm
T6 construct: whole, on cells
Method: as §1

[9] = target: T7, human ILT8 expressed on CHO-K1 cells (human, UniProt Q6PI73 24-481); test: cell-based ELISA on CHO-K1 cells expressing human ILT8, HRP anti-mouse IgG, OD 450-650 nm
T7 construct: whole, on cells; also called CHO-ILT8
Method: as §1

[10] = target: T3, Rhesus monkey ILT3 expressed on CHO-K1 …; test: cELISA, CHO rhesus ILT3 cells; remark: listed apart in the source
Method: as §2

[11] = target: T8, human ILT11 expressed on CHO-K1 cells (human, UniProt A6NI73 42-299); test: cell-based ELISA on CHO-K1 cells expressing human ILT11, HRP anti-mouse IgG, OD 450-650 nm
T8 construct: whole, on cells
Method: as §1

[12] = target: T4, rhesus ILT3-His tagged recombinant …; test: SPR (Biacore), rhesus ILT3-His
Method in brief: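 Antibodies captured on anti-human Fc surface, with human or rhesus ILT3-His as analyte in HBS-EP+ running buffer; reference flow cell subtracted, regeneration with 3M MgCl₂. ka and kd obtained from 1:1 Langmuir fits, KD = kd/ka.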

[13] = target: T5, human ILT3 expressed on cells; test: cell-based or functional assay
[14] = target: T2, Human ILT3 (LILRB4) extracellular …; test: SPR (Biacore), human ILT3-His; Table 7 value; Table 5 gives 1.79 × 10^-09 M
Method: The binding kinetics and affinities of anti-human ILT3 clones for human or rhesus ILT3-His tagged recombinant protein were measured by surface plasmon resonance using a Biacore™ T200 system (GE Healthcare, Piscataway, NJ). HBS-EP+ buffer (BR-1006-69) was used as the running buffer. Anti-human Fc antibody (Human Fc Capture Kit, BR100839, GE Healthcare) was immobilized via amine coupling chemistry in all four flow cells on a Series S CM5 sensor chip (BR100530 or 29149603, GE Healthcare) following manufacturer instructions. Flow cell 1 was used as reference for background subtraction and was not used for capture. […] Following each injection cycle, all four flow cells were regenerated using 30 second injection of 3M MgCl₂ solution at a flow rate of 10 μL/minute. Reference subtracted sensorgrams were fit to a 1:1 Langmuir Binding Model in the Biacore™ T200 Evaluation Software (Version 2.0) to determine the association (ka) and dissociation (kd) rate constants and the equilibrium dissociation constant KD (=kd/ka).
Table 7 summarizes the binding kinetics and affinities for the ani-human ILT3 antibodies to recombinant human or rhesus ILT3.

[15] = target: T3, Rhesus monkey ILT3 expressed on CHO-K1 …; test: cell-based ELISA on CHO-K1 cells expressing Rhesus monkey ILT3, HRP anti-mouse IgG, OD 450-650 nm
[16] = target: T5, human ILT3 expressed on cells; test: cell-based ELISA on CHO-K1 cells expressing human ILT3, HRP anti-mouse IgG, OD 450-650 nm

T7 sequence (Q6PI73 24-481): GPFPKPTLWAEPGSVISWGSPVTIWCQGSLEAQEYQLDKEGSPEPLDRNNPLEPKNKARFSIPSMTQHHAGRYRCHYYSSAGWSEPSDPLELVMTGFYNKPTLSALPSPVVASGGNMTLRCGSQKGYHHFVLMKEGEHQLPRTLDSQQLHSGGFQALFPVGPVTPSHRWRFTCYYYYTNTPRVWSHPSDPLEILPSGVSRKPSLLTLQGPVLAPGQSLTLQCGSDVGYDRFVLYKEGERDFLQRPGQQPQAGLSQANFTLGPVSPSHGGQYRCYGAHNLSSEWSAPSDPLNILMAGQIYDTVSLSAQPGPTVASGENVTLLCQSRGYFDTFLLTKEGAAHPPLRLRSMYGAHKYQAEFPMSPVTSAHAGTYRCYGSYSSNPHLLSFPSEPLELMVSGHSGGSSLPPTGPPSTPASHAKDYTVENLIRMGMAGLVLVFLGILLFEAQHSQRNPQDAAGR
T1 sequence (O75022 24-631): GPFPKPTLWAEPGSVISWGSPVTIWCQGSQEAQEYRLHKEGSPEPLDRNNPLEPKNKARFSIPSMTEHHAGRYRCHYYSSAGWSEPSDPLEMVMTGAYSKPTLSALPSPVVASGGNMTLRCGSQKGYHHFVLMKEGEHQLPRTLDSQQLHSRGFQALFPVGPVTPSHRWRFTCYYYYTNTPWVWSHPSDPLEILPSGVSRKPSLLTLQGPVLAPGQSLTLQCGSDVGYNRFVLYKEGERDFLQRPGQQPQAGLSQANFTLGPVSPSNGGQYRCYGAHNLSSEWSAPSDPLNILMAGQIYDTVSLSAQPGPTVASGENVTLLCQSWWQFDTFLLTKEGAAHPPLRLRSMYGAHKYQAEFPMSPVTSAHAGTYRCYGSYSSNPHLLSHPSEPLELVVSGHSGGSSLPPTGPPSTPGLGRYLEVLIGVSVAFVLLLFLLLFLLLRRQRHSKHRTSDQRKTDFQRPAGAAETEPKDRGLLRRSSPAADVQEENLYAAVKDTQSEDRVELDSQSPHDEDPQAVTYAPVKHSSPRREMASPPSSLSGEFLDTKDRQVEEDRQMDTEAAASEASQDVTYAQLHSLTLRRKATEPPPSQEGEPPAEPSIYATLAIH
T6 sequence (P59901 24-499): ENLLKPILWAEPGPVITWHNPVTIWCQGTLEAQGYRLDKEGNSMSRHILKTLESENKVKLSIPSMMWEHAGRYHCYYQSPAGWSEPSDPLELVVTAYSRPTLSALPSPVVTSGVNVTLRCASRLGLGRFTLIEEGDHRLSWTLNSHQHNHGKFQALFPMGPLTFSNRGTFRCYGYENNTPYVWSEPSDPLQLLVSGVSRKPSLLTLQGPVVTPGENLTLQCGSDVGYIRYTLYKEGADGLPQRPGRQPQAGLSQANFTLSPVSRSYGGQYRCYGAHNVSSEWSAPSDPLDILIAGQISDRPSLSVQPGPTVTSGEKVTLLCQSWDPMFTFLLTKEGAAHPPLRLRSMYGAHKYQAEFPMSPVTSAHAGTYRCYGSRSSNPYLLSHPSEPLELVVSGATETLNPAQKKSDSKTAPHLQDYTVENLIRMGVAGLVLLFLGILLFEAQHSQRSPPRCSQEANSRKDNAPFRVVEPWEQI
T8 sequence (A6NI73 42-299): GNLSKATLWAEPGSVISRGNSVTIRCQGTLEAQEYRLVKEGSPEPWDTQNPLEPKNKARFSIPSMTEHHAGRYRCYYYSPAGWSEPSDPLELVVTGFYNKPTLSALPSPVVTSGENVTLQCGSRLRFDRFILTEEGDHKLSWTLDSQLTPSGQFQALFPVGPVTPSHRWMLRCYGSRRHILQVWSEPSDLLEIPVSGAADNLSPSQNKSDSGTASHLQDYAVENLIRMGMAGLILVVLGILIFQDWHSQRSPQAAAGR

Row | Binder | binding result [1] | Kd [2] | EC50 [3] | Kd [4] | EC50 [5] | EC50 [6] | Kd [7] | binding result [8] | binding result [9] | EC50 [10] | binding result [11] | Kd [12] | TNFα secretion by human monocyte-derived dendritic cells polarized with IL-10 and LPS; concentration giving half of the maximal increase (EC50) [13] | Kd [14] | EC50 (read off the curve) [15] | EC50 (read off the curve) [16] | EC50 (read off the curve) [9]
1 | B1 | no binding (tested: 10000 ng/ml) | 0.658 nM | 23.2 µg/mL | 24.4 nM | 0.0155 µg/mL | 0.0155 µg/mL | 0.658 nM | no binding (tested: 10000 ng/ml) | no binding (tested: 10000 ng/ml) | 0.0232 µg/mL | no binding (tested: 10000 ng/ml) | 24.4 nM |  |  |  |  | 
2 | B2 |  | 0.46 nM | 0.091 µg/mL |  |  | 0.064 µg/mL |  |  |  |  |  | 9.5 nM | ~0.0019 µg/mL |  |  |  | 
3 | B3 |  |  | 25.9 µg/mL | 0.946 nM | 0.0179 µg/mL | 17.9 µg/mL | 1.79 nM |  |  | 0.0259 µg/mL |  | 0.995 nM |  | 0.713 nM |  |  | 
4 | B4 |  |  |  |  |  |  |  |  |  |  |  |  |  |  | ~0.05 µg/mL | ~0.02 µg/mL | ~0.02 µg/mL
